Reference: patent US20060204957A1, “Mta1s, a steriod hormone receptor corepressor” (priority 2002, published 2006)

Columns and labels:
ER [1] = test: ERE promoter-reporter assay, estradiol-stimulated, MCF-7 cells; format: cell-based, human; conditions: transient expression in MCF-7 cells
Method: (§1) Transfection was performed using a Fugene-6 kit (Roche Biochemical, New Jersey) as per the manufacturer's instructions. Cells were transiently cotransfected with a reporter construct and (β-galactosidase, and assayed for luciferase activity as described.
Since MTA1 is a corepressor of ER (Mazumdar, et al., 2001, incorporated herein by reference), the ability of MTA1 cDNAs to repress the transactivating function of ER were investigated.

[2] = tested on: glucocortocoid responsive element (GRE) transcription; test: GRE reporter assay, dexamethasone-stimulated, MCF-7 cells; format: cell-based, human; conditions: transient expression
Method: (§2) FIGS. 6A-6B. Typical transcriptional repression by MTA1s. FIG. 6A illustrates an example of repression of dexamethasone (10^−9 M)-mediated stimulation of GRE-CAT activity in MCF-7 cells by MTA1s. FIG. 6B illustrates the exemplary repression of progesterone (10^−9 M)-mediated stimulation of PRE-luciferase activity in MCF-7 cells by MTA1s. Cells were cotransfected with β-galactosidase to assess transfection efficiency, and normalized results are presented here.
as §1

[3] = tested on: progesterone responsive element (PRE) transcription; test: PRE reporter assay, progesterone-stimulated, MCF-7 cells; format: cell-based, human; conditions: transient expression
Method: as §2, §1

ER [4] = test: GST pull-down assay; format: binding; conditions: in vitro translated protein, GST fusion
Method: Incubating equal amounts of GST […] GST-AF2 or GST-AF 1 proteins immobilized to glutathione-sepharose beads with in vitro translated ^35S-labelled MTA1s, protein as described.
Since MTA1s lacked the nuclear signal sequence, the subcellular localization and function of MTA1s was examined. […] The role of MTA1s, in breast cancer cells, was investigated by generating stable clones of ZR-75R cells expressing T7-MTA1s (FIG. 3B). Subcellular fractionation of the ZR-75R cells expressing MTA1s confirmed that T7-MTA1s was in the cytoplasm. To assess the purity of the fractions, immunoblotting with antibodies against the nuclear corepressor PELP1 (Vadlamudi, et al., 2000) and cytosolic paxillin (FIG. 3C) were used. To understand the impact of MTA1s on the status of ER, immunostaining with an anti-ER mAb were used on MCF-7 cells that were transfected with the T7-MTA1s. The expression of T7-MTA1s was accompanied by a significant reduction in the nuclear ER immunoreactivity (FIG. 3D), raising the possibility that MTA1s regulates ER. To confirm the interaction between the MTA1s and endogenous ER, immunoprecipitation of T7-MTA1s with an anti-T7 mAb was used. […] To investigate whether the association between MTA1s and ER was direct or mediated by other proteins, the ability of in vitro-translated ER protein to bind with GST-MTA1s was investigated. […]
Target sequence in this assay (P03372 311-595 limits assumed): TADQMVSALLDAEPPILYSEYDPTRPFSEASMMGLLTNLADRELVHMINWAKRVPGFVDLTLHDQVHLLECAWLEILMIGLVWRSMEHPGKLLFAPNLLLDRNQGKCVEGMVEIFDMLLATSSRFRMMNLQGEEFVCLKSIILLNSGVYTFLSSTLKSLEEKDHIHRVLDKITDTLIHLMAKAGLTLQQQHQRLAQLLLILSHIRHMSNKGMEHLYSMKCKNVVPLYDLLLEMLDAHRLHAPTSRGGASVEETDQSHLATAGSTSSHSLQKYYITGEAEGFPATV

[5] = tested on: pS2, c-Myc and cathepsin-D; test: Expression of ER-target genes in ZR-75R cells; format: cell-based, human; conditions: ZR-75R/MTA1s cells
Method: FIGS. 5A-5F. MTA1s may impair genomic responses and upregulates the MAP kinase pathway in ZR75R breast cancer cells. […] FIG. 5B illustrates an example of the status of E2 (10^−9 M for 16 h)-induced stimulation of pS2 mRNA. […] Treatment, 5 min. with E2 (10^−9 M) or ICI 182780 (10^−8 M) or both. […] Treatment, 5 min with E2 (10^−9 M) or ICI 182780 (10^−8 M) or both. Relative levels of p42/44Phos are shown underneath.

ZR-75R or MCF-7 cells = test: Soft-agar anchorage-independent growth assay; format: cell-based, human; conditions: stable expression in ZR-75R or MCF-7 cells
Text: (§3) FIGS. 11A-11E. MTA1s may stimulate aggressive phenotypes in breast cancer cells. FIG. 11A illustrates an example of MTA1s overexpression inhibiting PRE-driven but not RARE-driven transcription. FIG. […] illustrates the Growth-rate of ZR/pcDNA or ZR/MTA1s cells in monolayer culture in the presence of E2 alone or with ICI 182780 (10^−9 M for 4 days). FIG. 11C show an exemplary effect of MTA1s expression on anchorage independent growth of ZR/pcDNA and ZR/MTA1s cells grown in 10% serum in the presence or absence of ICI 182780 (10^−9 M) or 4HT (10^−8 M) for 14 days. […] FIG. 11E illustrates that MTA1s may induce tumorigenesis of breast cancer cells. 5×10^6 cells were subcutaneously inoculated in the athymic nude mice (n=10), and tumor volumes at day 21 were recorded.
(§4) Soft agar colony growth assays were performed as described in Mazumdar et al., 2001, herein incorporated by reference. For xenografts studies, 5×10^6 cells were implanted subcutaneously into mammary fat-pad of nude mice and allowed to grow for 21 days and tumor size was measured, as described in Mandal et al., 2001, herein incorporated by reference.

breast cancer cells = test: Tumorigenesis (xenograft) assay in nude mice; format: in vivo; conditions: MTA1s expressing cells implanted subcutaneously, 21 days
Text: as §3, §4

ERα = molecular target: T1, ERα (Homo sapiens, UniProt P03372); test: Confocal localization of ERα in estradiol-stimulated MCF-7 cells; format: cell-based; conditions: estradiol stimulated MCF-7 cells expressing the construct
T1 construct: endogenous in cells; host or cells: MCF-7 cells transfected with T7-MTA1s or MTA1s-del
T1 sequence (P03372 whole entry): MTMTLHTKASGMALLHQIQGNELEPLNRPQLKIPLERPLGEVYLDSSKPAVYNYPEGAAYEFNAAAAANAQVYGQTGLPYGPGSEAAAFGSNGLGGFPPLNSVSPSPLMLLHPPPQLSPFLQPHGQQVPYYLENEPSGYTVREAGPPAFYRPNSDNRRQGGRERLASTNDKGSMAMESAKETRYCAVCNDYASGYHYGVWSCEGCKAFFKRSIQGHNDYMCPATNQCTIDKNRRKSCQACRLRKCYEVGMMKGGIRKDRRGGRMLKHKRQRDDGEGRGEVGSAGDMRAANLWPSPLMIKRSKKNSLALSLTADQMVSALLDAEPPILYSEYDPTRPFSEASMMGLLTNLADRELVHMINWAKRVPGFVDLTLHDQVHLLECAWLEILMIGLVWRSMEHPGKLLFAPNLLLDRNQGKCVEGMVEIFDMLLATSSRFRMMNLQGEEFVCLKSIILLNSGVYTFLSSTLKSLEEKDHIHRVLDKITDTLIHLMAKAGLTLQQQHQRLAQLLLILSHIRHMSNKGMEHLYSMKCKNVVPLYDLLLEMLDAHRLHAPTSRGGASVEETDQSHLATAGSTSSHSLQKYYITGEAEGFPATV
Method: The cellular localization of T7-MTA1s, and ER was determined using indirect immunofluorescence as described in Mazumdar et al., 2001, herein incorporated by reference. Cells were treated with or without anti-T7 mAb or ER Ab followed by 546-Alexa-labeled goat anti-mouse Ab or 488-Alexa.
Expression of MTA1s-del but not wild type MTA1s was accompanied by the presence of ERα in the nucleus in more than 90% of the cell expressing MTA1s-del. Together, these findings indicated a pivotal role of LRILL motif in the cytoplasmic sequestration of ERα.

B1: full-length MTA1: 715 amino acid metastasis-associated protein, corepressor of nuclear Estrogen Receptor α (protein, UniProt Q13330 1-715, looked up)
chain: MAANMYRVGDYVYFENSSSNPYLIRRIEELNKTANGNVEAKVVCFYRRRDISSTLIALADKHATLSVCYKAGPGADNGEEGEIEEEMENPEMVDLPEKLKHQLRHRELFLSRQLESLPATHIRGKCSVTLLNETESLKSYLEREDFFFYSLVYDPQQKTLLADKGEIRVGNRYQADITDLLKEGEEDGRDQSRLETQVWEAHNPLTDKQIDQFLVVARSVGTFARALDCSSSVRQPSLHMSAAAASRDITLFHAMDTLHKNIYDISKAISALVPQGGPVLCRDEMEEWSASEANLFEEALEKYGKDFTDIQQDFLPWKSLTSIIEYYYMWKTTDRYVQQKRLKAAEAESKLKQVYIPNYNKPNPNQISVNNVKAGVVNGTGAPGQSPGAGRACESCYTTQSYQWYSWGPPNMQCRLCASCWTYWKKYGGLKMPTRLDGERPGPNRSNMSPHGLPARSSGSPKFAMKTRQAFYLHTTKLTRIARRLCREILRPWHAARHPYLPINSAAIKAECTARLPEASQSPLVLKQAVRKPLEAVLRYLETHPRPPKPDPVKSVSSVLSSLTPAKVAPVINNGSPTILGKRSYEQHNGVDGNMKKRLLMPSRGLANHGQARHMGPSRNLLLNGKSYPTKVRLIRGGSLPPVKRRRMNWIDAPDDVFYMATEETRKIRKLLSSSETKRAARRPYKPIALRQSQALPPRPPPPAPVNDEPIVIED
modifications: full-length
notes: 715 amino acid metastasis-associated protein, corepressor of nuclear Estrogen Receptor α
B1 was tested, and the “repression of estradiol's ability to stimulate ERE transcription” value (“repression of estradiol's ability” below) (ER [1]) was “effectively blocked”.

B2: MTA1s: novel 430 amino acid protein from an alternatively spliced MTA1 transcript, with unique 33 amino acid C-terminus (SEQ ID NO:2) (protein, listed as Homo sapiens)
chain: MAANMYRVGDYVYFENSSSNPYLIRRIEELNKTANGNVEAKVVCFYRRRDISSTLIALADKHATLSVCYKAGPGADNGEEGEIEEEMENPEMVDLPEKLKHQLRHRELFLSRQLESLPATHIRGKCSVTLLNETESLKSYLEREDFFFYSLVYDPQQKTLLADKGEIRVGNRYQADITDLLKEGEEDGRDQSRLETQVWEAHNPLTDKQIDQFLVVARSVGTFARALDCSSSVRQPSLHMSAAAASRDITLFHAMDTLHKNIYDISKAISALVPQGGPVLCRDEMEEWSASEANLFEEALEKYGKDFTDIQQDFLPWKSLTSIIEYYYMWKTTDRYVQQKRLKAAEAESKLKQVYIPNYNKPNPNQISVNNVKAGVVNGTGAPGQSPGAGRACESCYMSSLRILLDILEEIWWLENANPVRWREARTKPQ
In the case of B2, the “repression of estradiol's ability” value (ER [1]) is reported as “effectively blocked”, the “repression of GRE transcription stimulated by dexamethasone” value [2] is reported as “blocked the stimulation” and the “repression of PRE transcription stimulated by progesterone” value [3] is reported as “blocked the stimulation”. The “binding to ER in GST pull-down” value (ER [4]) was “interacted with the GST-ER but not with GST alone”, the “expression of ER-target genes pS2, c-Myc and cathepsin-D” value [5] was “significantly reduced expression” and the “anchorage-independent growth in soft agar” value (ZR-75R or MCF-7 cells) was “significantly enhanced”. The “tumorigenicity in nude mice” value (breast cancer cells) was “more tumorigenic”.

B3: MTA1s-del: MTA1s mutant made by deleting the LRILL motif (protein)
chain: MAANMYRVGDYVYFENSSSNPYLIRRIEELNKTANGNVEAKVVCFYRRRDISSTLIALADKHATLSVCYKAGPGADNGEEGEIEEEMENPEMVDLPEKLKHQLRHRELFLSRQLESLPATHIRGKCSVTLLNETESLKSYLEREDFFFYSLVYDPQQKTLLADKGEIRVGNRYQADITDLLKEGEEDGRDQSRLETQVWEAHNPLTDKQIDQFLVVARSVGTFARALDCSSSVRQPSLHMSAAAASRDITLFHAMDTLHKNIYDISKAISALVPQGGPVLCRDEMEEWSASEANLFEEALEKYGKDFTDIQQDFLPWKSLTSIIEYYYMWKTTDRYVQQKRLKAAEAESKLKQVYIPNYNKPNPNQISVNNVKAGVVNGTGAPGQSPGAGRACESCYMSSDILEEIWWLENANPVRWREARTKPQ
In the case of B3, the “repression of estradiol's ability” value (ER [1]) is reported as “did not result in a significant suppression” and the “cells with ERα present in the nucleus” value (ERα) is reported as “more than 90%”.

B4: MTA1s-stop: MTA1s mutant made by adding a stop codon and deleting the entire 33 amino acids (protein)
chain: MAANMYRVGDYVYFENSSSNPYLIRRIEELNKTANGNVEAKVVCFYRRRDISSTLIALADKHATLSVCYKAGPGADNGEEGEIEEEMENPEMVDLPEKLKHQLRHRELFLSRQLESLPATHIRGKCSVTLLNETESLKSYLEREDFFFYSLVYDPQQKTLLADKGEIRVGNRYQADITDLLKEGEEDGRDQSRLETQVWEAHNPLTDKQIDQFLVVARSVGTFARALDCSSSVRQPSLHMSAAAASRDITLFHAMDTLHKNIYDISKAISALVPQGGPVLCRDEMEEWSASEANLFEEALEKYGKDFTDIQQDFLPWKSLTSIIEYYYMWKTTDRYVQQKRLKAAEAESKLKQVYIPNYNKPNPNQISVNNVKAGVVNGTGAPGQSPGAGRACESCY
In the case of B4, the “repression of estradiol's ability” value (ER [1]) is reported as “did not result in a significant suppression”.
